US20230002489A1 (SHANGHAI EPIMAB BIOTHERAPEUTICS, published 2023)
Changes are numbered by the printed parent chain.

Assays:
BCMA on NCI-H929 cells [1] = biological target: T1, BCMA on NCI-H929 cells (human, UniProt Q02223 1-184); experiment: cell-based or functional assay
T1 sequence (looked up): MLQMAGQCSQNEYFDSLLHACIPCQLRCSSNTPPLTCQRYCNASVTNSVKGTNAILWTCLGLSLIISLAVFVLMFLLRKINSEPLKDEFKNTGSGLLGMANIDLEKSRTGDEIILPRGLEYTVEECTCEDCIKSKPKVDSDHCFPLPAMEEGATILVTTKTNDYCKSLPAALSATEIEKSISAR

[2] = biological target: T2, BCMA on HEK293F-BCMA-NF-kB-luc cells (clone 1H2) (UniProt Q02223 1-184, limits assumed); experiment: cell-based or functional assay
T2 sequence (looked up): T1 sequence (looked up)

[3] = biological target: T3, recombinant human BCMA extracellular domain/Fc dimer (human); experiment: SPR, Biacore T200, 25 C; antibody captured on anti-mouse IgG Fc, BCMA(ECD)/Fc injected
T3 construct: also called Human BCMA (ECD); human BCMA(ECD)/Fc
Description: (§1) Briefly, goat anti-mouse IgG Fc antibody was directly immobilized across a biosensor chip, and antibody samples were injected over reaction matrices at a flow rate of 5 μl/min. Mouse anti-BCMA IgG test antibody was injected over the immobilized surface and captured by the immobilized anti-Fc antibodies. Human and cynomolgus BCMA(ECD)/Fc target polypeptides were then injected over the captured mouse anti-BCMA IgG surface. The association and dissociation rate constants, kₒₙ (M⁻¹s⁻¹) and koff (s⁻¹), respectively, were determined with a continuous flow rate of 30 μl/min. Rate constants were derived by making kinetic binding measurements at five different concentrations of target BCMA(ECD) polypeptide. The equilibrium dissociation constant KD (M) of the reaction between antibodies and related target proteins was then calculated from the kinetic rate constants using the formula KD=koff/kₒₙ. Kinetic constants were determined by processing and fitting the data to a 1:1 binding model using Biacore analysis software.

[4] = biological target: T4, cynomolgus BCMA(ECD)/Fc target polypeptide (cynomolgus); experiment: as above
T4 construct: extracellular domain; also called Cyno BCMA (ECD); cynoBCMA/Fc
Description: as §1

BCMA on NCI-H929 cells [5] = biological target: T1, BCMA on NCI-H929 cells; experiment: flow cytometry on NCI-H929 cells, MFI
[6] = biological target: T5, human CD3 on the surface of Jurkat cells (human, UniProt P07766 23-207; P09693 23-182; P04234 22-171); experiment: flow cytometry on Jurkat/NFAT/luc cells, MFI against antibody conc. (nM)
T5 construct: whole, on cells; Endogenous CD3 complex of the Jurkat T cell line; also called cell surface CD3 target on Jurkat cells; CD3-expressing Jurkat cells

BCMA on NCI-H929 cells [7] = biological target: T1, BCMA on NCI-H929 cells; experiment: flow cytometry on NCI-H929 cells, Mean fluorescence against antibody conc. (nM)
Description: Binding activity of the chimeric bispecific BCMA/CD3 FIT-Ig antibodies was tested via flow cytometry with a human CD3/TCR complex transfected CHO cell line (CHOK1/CD3/TCR cells) and BCMA-expressing NCI-H929 cells. Briefly, 5×10⁵ cells in FACS buffer were seeded into 96 well plates. Cells were centrifuged at 400×g for 5 minutes and supernatants were discarded. For each well, 100 μl serially diluted FIT-Ig or FIT-Fab antibodies were then added and mixed with the cells. Following incubation for 40 minutes at 4° C., plates were washed several times to remove excess antibodies. Secondary antibody (goat anti-huIgG kappa chain specific) was then added and incubated with cells at room temperature for 20 minutes. After another round of centrifugation and washing, cells were resuspended with FACS buffer for reading on a CytoFLEX Flow Cytometer. Results were analyzed and plotted with GraphPad Prism 5.0 software.

[8] = biological target: T6, recombinant huCD3εγ/Fc fusion protein (fusion protein heterodimer) (human); experiment: SPR, Biacore T200, 25 C; antigen/Fc amine-coupled to the chip, FIT-Ig injected
T6 construct: also called huCD3/Fc dimer; heterodimeric CD3εγ/Fc fusion protein

[9] = biological target: T7, cynoCD3εγ/Fc fusion protein (cynomolgus monkey, UniProt Q95LI5 22-117; Q95LI7 23-113); experiment: as above
T7 construct: also called cynomolgus monkey CD3ε/γ heterodimer-Fc fusion protein; not shown: linker and Fc not described for the cynomolgus construct
T7 sequence (looked up) 1: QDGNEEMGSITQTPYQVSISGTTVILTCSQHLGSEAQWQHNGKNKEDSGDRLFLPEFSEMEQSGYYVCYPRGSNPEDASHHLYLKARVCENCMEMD
T7 sequence (looked up) 2: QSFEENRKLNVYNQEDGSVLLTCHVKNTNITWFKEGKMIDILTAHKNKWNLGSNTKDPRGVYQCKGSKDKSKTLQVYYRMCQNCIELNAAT

[10] = biological target: T4, cynomolgus BCMA(ECD)/Fc target …; experiment: as above
[11] = biological target: T5, human CD3 on the surface of Jurkat cells; experiment: flow cytometry on Jurkat cells, Median-APC against antibody conc. (nM)
[12] = biological target: T3, recombinant human BCMA extracellular …; experiment: SPR, Biacore T200, 25 C; antigen/Fc amine-coupled to the chip, FIT-Ig injected

T5 sequence (P07766 23-207, chain 1 of 3): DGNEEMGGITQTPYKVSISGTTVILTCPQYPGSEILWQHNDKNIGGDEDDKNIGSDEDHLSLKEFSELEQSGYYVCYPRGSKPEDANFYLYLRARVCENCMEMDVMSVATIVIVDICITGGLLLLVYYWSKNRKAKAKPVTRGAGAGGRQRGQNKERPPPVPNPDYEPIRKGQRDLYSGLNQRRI
T5 sequence (P09693 23-182, chain 2 of 3): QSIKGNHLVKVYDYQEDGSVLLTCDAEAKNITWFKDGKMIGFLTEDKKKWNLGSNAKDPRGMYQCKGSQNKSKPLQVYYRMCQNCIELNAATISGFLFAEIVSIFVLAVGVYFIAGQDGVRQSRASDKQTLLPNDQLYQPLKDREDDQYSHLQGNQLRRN
T5 sequence (P04234 22-171, chain 3 of 3): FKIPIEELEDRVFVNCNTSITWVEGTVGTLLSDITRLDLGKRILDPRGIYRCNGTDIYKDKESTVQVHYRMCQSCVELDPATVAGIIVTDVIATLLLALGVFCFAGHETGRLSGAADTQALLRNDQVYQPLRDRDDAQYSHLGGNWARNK
T6 sequence (chain, as listed by the source limits assumed, chain 1 of 2): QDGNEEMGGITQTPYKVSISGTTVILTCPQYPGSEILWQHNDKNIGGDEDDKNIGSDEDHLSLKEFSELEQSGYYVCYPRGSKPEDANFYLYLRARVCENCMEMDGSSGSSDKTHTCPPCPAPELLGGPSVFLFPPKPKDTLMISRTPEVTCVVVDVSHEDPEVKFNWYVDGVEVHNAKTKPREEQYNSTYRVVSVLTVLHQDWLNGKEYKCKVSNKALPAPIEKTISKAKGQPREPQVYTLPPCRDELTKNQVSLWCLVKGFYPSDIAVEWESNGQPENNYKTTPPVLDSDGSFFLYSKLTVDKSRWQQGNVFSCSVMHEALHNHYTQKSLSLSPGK
T6 sequence (chain, as listed by the source limits assumed, chain 2 of 2): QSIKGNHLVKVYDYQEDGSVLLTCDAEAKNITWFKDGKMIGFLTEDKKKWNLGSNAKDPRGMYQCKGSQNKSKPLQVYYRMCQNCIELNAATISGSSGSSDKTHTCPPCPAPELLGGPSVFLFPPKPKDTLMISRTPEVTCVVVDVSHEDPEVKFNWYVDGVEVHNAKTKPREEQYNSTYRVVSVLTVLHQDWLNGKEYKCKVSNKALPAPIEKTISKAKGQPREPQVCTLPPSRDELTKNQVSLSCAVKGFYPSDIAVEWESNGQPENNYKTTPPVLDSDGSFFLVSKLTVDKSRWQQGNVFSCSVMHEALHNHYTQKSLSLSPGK

B1: mAbBCMA-002 (antibody, V domains shown)
VH: QIQLVQSGPELKKPGETVKISCKASGYSFTNYGLNWVKQAPGKGLKWMGWINTYSGHPTYVDDFKGRFAFSLETSASTAYLQINKLKNEDTSTYFCVREKDDGYRLGLDYWGQGTSVTVSS
VL: QIVLTQSPAIMSASPGEKVTMTCSASSSVSYMYWYQQRPGSSPRLWIYDTSNLVSGVPARFSGSRSGTSYSLTISGMEAEDAATYYCLQYSGYPYTFGGGTKLEIK
notes: Mouse anti-BCMA IgG from hybridoma
B1 was tested, and the “EC50 of inhibition of BAFF-induced NF-kB phosphorylation in NCI-H929 cells (inhibition %), unit from the axis” value (BCMA on NCI-H929 cells [1]) was 34.8 nM, the “EC50 of inhibition of the BAFF-induced NF-kB luciferase signal in HEK293F-BCMA-NF-kB-luc cells (inhibition %; the curve reaches only about 30 % at 100 nM), unit from the axis” value [2] was 20.1 nM and the Kd [3] was 13.8 nM. The koff [3] was 0.00292 s⁻¹, the kon [3] was 212000 M⁻¹ s⁻¹ and the Kd [4] was 7.55 nM. For the same binder, the koff [4] was 0.000304 s⁻¹ and the kon [4] was 40300 M⁻¹ s⁻¹.

B2: HuEM0006-01-24 (antibody, human IgG1, kappa, L234A L235A, V domains shown)
VH: EVQLVQSGAEVKKPGASVKVSCKASGFSFTNYYVHWMRQAPGQGLEWMGWISPGSDNTKYNEKFKGRVTMTRDTSISTAYMELSRLRSDDTAVYYCARDDYGNYYFDYWGQGTTVTVSS
VL: DIVMTQSPDSLAVSLGERATINCKSSQSLLNARTRKNYLAWYQQKPGQPPKLLIYWASTRESGVPDRFSGSGSGTDFTLTISSLQAEDVAVYYCKQSYILRTFGGGTKVEIKR
notes: Humanized variant of mAbCD3-001; also called HuEM1006-01-24; monospecific anti-CD3 IgG
In the case of B2, the binding result (BCMA on NCI-H929 cells [5]) is reported as “no binding (tested: 100 nM)” and the “EC50 (read off the curve)” value [6] is reported as ~0.5 nM.

B3: huEM0006-01-27 (antibody, human IgG1, kappa, L234A L235A, V domains shown)
VH: B2 VH with M48I, M70L, R72A
VL: B2 VL
B3: no binding (tested: 100 nM) (BCMA on NCI-H929 cells [5]); binds [6].

B4: FIT1006-6a-Fab (bispecific antibody, not shown: small tags and cut ends)
chain 1: not shown
chain 2: EVQLVQSGAEVKKPGASVKVSCKASGYTFTNYYVHWMRQAPGQGLEWIGWISPGSDNTKYNEKFKGRVTLTADTSISTAYMELSRLRSDDTAVYYCARDDYGNYYFDYWGQGTTVTVSSASTKGPSVFPLAPSSKSTSGGTAALGCLVKDYFPEPVTVSWNSGALTSGVHTFPAVLQSSGLYSLSSVVTVPSSSLGTQTYICNVNHKPSNTKVDKKVEPKSC
chain 3: DIQMTQSPASLSASVGETVTVTCGASENIYGALNWYQRKQGKSPQLLIYGATNLADGISSRFSGSGSGRQFSLKISSLLPDDVATYFCQSVLTTPWTFGGGTKLEIKRTVAAPSVFIFPPSDEQLKSGTASVVCLLNNFYPREAKVQWKVDNALQSGNSQESVTEQDSKDSTYSLSSTLTLSKADYEKHKVYACEVTHQGLSSPVTKSFNRGEC
notes: FIT-Fab made from FIT1006-6a by papain digestion (Fc removed)
B4: binds (BCMA on NCI-H929 cells [7]).

B5: FIT1006-31a(D-T) (bispecific antibody, human IgG1, kappa, L234A L235A)
chain 1: not shown
chain 2: B4 chain 2 with Y27F, T28S, I48M, L70M, A72R
chain 3: DIQMTQSPSSLSASVGDRVTITCGASENIYGALNWYQQKPGKAPKLLIYGATNLATGIPSRFSGSGSGRDFTLTISSLQPEDFATYYCQSVLTTPWTFGQGTKLEIKRTVAAPSVFIFPPSDEQLKSGTASVVCLLNNFYPREAKVQWKVDNALQSGNSQESVTEQDSKDSTYSLSSTLTLSKADYEKHKVYACEVTHQGLSSPVTKSFNRGEC
With B5 the “EC50 (read off the curve)” value [6] was ~1 nM.

B6: FIT1006-4a-Fab (bispecific antibody, not shown: small tags and cut ends)
chain 1: not shown
chain 2: B4 chain 2 with Y27F, T28S, I48M, L70M, A72R
chain 3: B4 chain 3
B6: binds (BCMA on NCI-H929 cells [7]).

B7: FIT1006-35a(D-T) (bispecific antibody, human IgG1, kappa, L234A L235A)
chain 1: not shown
chain 2: B4 chain 2 with Y27F, T28S
chain 3: B5 chain 3
B7: binds [6].

B8: FIT1006-8a-Fab (bispecific antibody, not shown: small tags and cut ends)
chain 1: not shown
chain 2: B4 chain 2 with M37V
chain 3: B4 chain 3
notes: FIT-Fab made from FIT1006-8a by papain digestion (Fc removed)
B8: binds (BCMA on NCI-H929 cells [7]).

B9: FIT1006-31b (D-E) (bispecific antibody, human IgG1, kappa, L234A L235A)
chain 1: not shown
chain 2: EVQLVQSGAEVKKPGASVKVSCKASGYTFTNFWMHWVRQAPGQRLEWMGAFYPGNDDTYYNQKFKGRVTITADTSASTAYMELSSLRSEDMAVYYCARSGYYGSSDAMDYWGQGTTVTVSSASTKGPSVFPLAPSSKSTSGGTAALGCLVKDYFPEPVTVSWNSGALTSGVHTFPAVLQSSGLYSLSSVVTVPSSSLGTQTYICNVNHKPSNTKVDKKVEPKSC
chain 3: not shown
notes: Humanized BCMA/CD3 FIT-Ig, outer BCMA and inner CD3 Fab, no linkers
B9 was tested, and the Kd [8] was 17.1 nM, the koff [8] was 0.00574 s⁻¹ and the kon [8] was 337000 M⁻¹ s⁻¹. The Kd [9] was 10.8 nM, the koff [9] was 0.00632 s⁻¹ and the kon [9] was 583000 M⁻¹ s⁻¹. For the same binder, the Kd [10] was 1.61 nM, the koff [10] was 0.000167 s⁻¹ and the kon [10] was 104000 M⁻¹ s⁻¹.

B10: FIT1006-35b(D-T) (bispecific antibody, human IgG1, kappa, L234A L235A)
chain 1: not shown
chain 2: B9 chain 2
chain 3: not shown
notes: Humanized BCMA/CD3 FIT-Ig, outer BCMA and inner CD3 Fab
B10: binds [11].

B11: FIT1006-29b(D-A) (bispecific antibody, human IgG1, kappa, L234A L235A)
chain 1: not shown
chain 2: B9 chain 2 with T30P, M48I, R67K, V68A, I70L
chain 3: not shown
notes: as for B10
With B11 the Kd [8] was 16.7 nM, the koff [8] was 0.00585 s⁻¹ and the kon [8] was 349000 M⁻¹ s⁻¹. For the same binder, the Kd [9] was 11.2 nM, the koff [9] was 0.00607 s⁻¹ and the kon [9] was 541000 M⁻¹ s⁻¹. The Kd [12] was < 0.057 nM, the koff [12] was < 5e-06 s⁻¹ and the kon [12] was 87800 M⁻¹ s⁻¹. The Kd [10] was 1.09 nM, the koff [10] was 0.00021 s⁻¹ and the kon [10] was 192000 M⁻¹ s⁻¹.

B12: FIT1006-31b(D-T) (bispecific antibody, human IgG1, kappa, L234A L235A)
chain 1: not shown
chain 2: B9 chain 2
chain 3: not shown
notes: as for B10
For B12, the “EC50 (read off the curve)” value [11] was ~3 nM, the Kd [8] was 15.6 nM and the koff [8] was 0.00572 s⁻¹. It also gave a kon [8] of 367000 M⁻¹ s⁻¹, a Kd [9] of 11.4 nM and a koff [9] of 0.00621 s⁻¹. For the same binder, the kon [9] was 546000 M⁻¹ s⁻¹, the Kd [10] was 1.02 nM and the koff [10] was 0.000191 s⁻¹. For the same binder, the kon [10] was 188000 M⁻¹ s⁻¹.
